Data as given in paper PMC1110745.

Biological target: GST-AP-2alpha (Homo sapiens, UniProt P05549 1-437)
Assay: competition

Sequence of GST-AP-2alpha (P05549 whole entry): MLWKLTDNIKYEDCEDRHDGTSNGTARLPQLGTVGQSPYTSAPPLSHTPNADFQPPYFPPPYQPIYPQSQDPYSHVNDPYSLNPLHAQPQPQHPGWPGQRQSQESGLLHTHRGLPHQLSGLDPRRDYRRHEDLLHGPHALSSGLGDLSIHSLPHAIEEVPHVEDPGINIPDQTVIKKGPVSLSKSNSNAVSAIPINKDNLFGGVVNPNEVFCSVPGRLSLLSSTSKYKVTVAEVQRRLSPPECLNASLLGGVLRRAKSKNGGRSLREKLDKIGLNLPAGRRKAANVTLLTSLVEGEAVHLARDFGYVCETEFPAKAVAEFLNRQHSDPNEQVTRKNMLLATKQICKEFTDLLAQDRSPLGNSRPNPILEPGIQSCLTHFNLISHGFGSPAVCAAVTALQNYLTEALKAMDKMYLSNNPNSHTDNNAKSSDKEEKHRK

B1: O58 (dsDNA)
DNA 1: GATTGTCCCTACACTCGCCTCAGGCGATCATCGGAATACACGATGCTTGG
DNA 2: CCAAGCATCGTGTATTCCGATGATCGCCTGAGGCGAGTGTAGGGACAATC
  binding result: binds
